Data: patent US20170247465A1, “COMBINATION THERAPY FOR TREATMENT OF CANCER” (OncoMed Pharmaceuticals, Inc., priority 2014, published 2017)

Test system: cancer stem cells in OMP-LU77 lung tumors
Test: Limiting dilution assay, cancer stem cell frequency in OMP-LU77 lung tumors (Example 7)
Type: in vivo, NOD/SCID mice
Conditions: tumors from mice treated with vantictumab administered prior to paclitaxel; 50, 150, 500 cells implanted, 79 days; FIG. 5B
Text: FIGS. 5A-5B. Cancer Stem Cell frequency. FIG. 5A. Tumor growth in mice following implantation of 50, 150, or 500 OMP-LU77 tumor cells obtained from mice that had been treated with either control antibody (Control mAb), paclitaxel (Pac), or the combination of OMP-18R5 and paclitaxel (Van+Pac). FIG. 5B. Cancer stem cell (CSC) frequency in OMP-LU77 lung tumors following treatment with control antibody (Control mAb), paclitaxel, or a combination of OMP-18R5 antibody and paclitaxel (Van+Pac) as determined by limiting dilution analysis.
Limiting dilution assays (LDAs) can be used to assess the effect of Wnt pathway inhibitors on solid tumor cancer stem cells and/or on the tumorigenicity of a tumor. The assays can be used to determine the frequency of cancer stem cells in tumors from animals treated with the Wnt pathway inhibitor and to compare that frequency to the frequency of cancer stem cells in tumors from control animals. […]
For the LDA, the tumor cells in the suspension were harvested, counted, and appropriate cell doses (50, 150, and 500 cells) were injected subcutaneously in NOD/SCID mice (10 mice per cell dose per treatment group). […] The percentage of mice with detectable tumors was determined in all treatment groups and compared to the percentage of mice with detectable tumors in the controls. […]

B1: OMP-18R5: anti-FZD antibody, IgG2, also known as vantictumab; heavy chain SEQ ID NO:3, light chain SEQ ID NO:4 (antibody)
heavy: EVQLVESGGGLVQPGGSLRLSCAASGFTFSHYTLSWVRQAPGKGLEWVSVISGDGSYTYYADSVKGRFTISSDNSKNTLYLQMNSLRAEDTAVYYCARNFIKYVFANWGQGTLVTVSSASTKGPSVFPLAPCSRSTSESTAALGCLVKDYFPEPVTVSWNSGALTSGVHTFPAVLQSSGLYSLSSVVTVPSSNFGTQTYTCNVDHKPSNTKVDKTVERKCCVECPPCPAPPVAGPSVFLFPPKPKDTLMISRTPEVTCVVVDVSHEDPEVQFNWYVDGVEVHNAKTKPREEQFNSTFRVVSVLTVVHQDWLNGKEYKCKVSNKGLPAPIEKTISKTKGQPREPQVYTLPPSREEMTKNQVSLTCLVKGFYPSDIAVEWESNGQPENNYKTTPPMLDSDGSFFLYSKLTVDKSRWQQGNVFSCSVMHEALHNHYTQKSLSLSPGK
light: DIELTQPPSVSVAPGQTARISCSGDNIGSFYVHWYQQKPGQAPVLVIYDKSNRPSGIPERFSGSNSGNTATLTISGTQAEDEADYYCQSYANTLSLVFGGGTKLTVLGQPKAAPSVTLFPPSSEELQANKATLVCLISDFYPGAVTVAWKADSSPVKAGVETTTPSKQSNNKYAASSYLSLTPEQWKSHRSYSCQVTHEGSTVEKTVAPTECS
B1 was tested, and the “cancer stem cell frequency (limiting dilution analysis, L-Calc)” value was “significantly decreased the cancer stem frequency”.
